Data: paper PMC12281766, “Inhibition of FAM19A5 reverses synaptic loss and cognitive decline in mouse models of Alzheimer’s disease” (Alzheimer's Research & Therapy, 2025)
One block for each molecule: values may come before it.

Legend:
His-TEV LRRC4B [1] = target: T1, His-TEV LRRC4B; assay: ELISA; captured by His-TEV LRRC4B, detected by HRP-conjugated C-A5-Ab
T1 sequence (Q9NT99 whole entry, species assumed, looked up): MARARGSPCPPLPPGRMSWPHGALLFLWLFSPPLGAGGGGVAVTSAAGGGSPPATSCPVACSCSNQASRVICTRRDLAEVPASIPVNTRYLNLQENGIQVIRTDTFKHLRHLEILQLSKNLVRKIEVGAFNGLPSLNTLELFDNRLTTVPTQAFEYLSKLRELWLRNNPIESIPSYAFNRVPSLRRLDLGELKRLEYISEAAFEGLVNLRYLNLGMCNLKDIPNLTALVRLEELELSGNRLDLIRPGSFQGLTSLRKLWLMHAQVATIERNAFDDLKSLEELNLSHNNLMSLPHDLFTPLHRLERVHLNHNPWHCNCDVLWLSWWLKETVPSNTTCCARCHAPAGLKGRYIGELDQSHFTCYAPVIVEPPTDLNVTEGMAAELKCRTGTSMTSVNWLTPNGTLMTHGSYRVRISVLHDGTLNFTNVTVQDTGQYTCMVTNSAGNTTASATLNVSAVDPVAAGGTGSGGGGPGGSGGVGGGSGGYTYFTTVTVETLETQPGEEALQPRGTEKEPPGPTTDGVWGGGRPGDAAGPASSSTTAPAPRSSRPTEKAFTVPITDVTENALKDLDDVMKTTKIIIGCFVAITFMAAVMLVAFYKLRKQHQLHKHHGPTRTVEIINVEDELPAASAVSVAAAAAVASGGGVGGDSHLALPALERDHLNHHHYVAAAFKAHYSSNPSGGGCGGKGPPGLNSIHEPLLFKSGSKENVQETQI

His-TEV LRRC4B [2] = target: T1, His-TEV LRRC4B; assay: ELISA; competition: LRRC4B-PTPRF complex in the presence of FAM19A5; captured by His-TEV LRRC4B, detected by HRP-conjugated anti-human IgG Fc
His-TEV LRRC4B [3] = target: T2, His-TEV LRRC4B; assay: competition ELISA (dissociation of LRRC4B-PTPRF complex); details: chain shown with the change; read at the highest FAM19A5 concentration, about 1e4 nM; signal is PTPRF remaining bound to His-TEV LRRC4B, so a lower OD means more displacement by FAM19A5 …; parent: est. 0.16; read off a plot
T2 chain: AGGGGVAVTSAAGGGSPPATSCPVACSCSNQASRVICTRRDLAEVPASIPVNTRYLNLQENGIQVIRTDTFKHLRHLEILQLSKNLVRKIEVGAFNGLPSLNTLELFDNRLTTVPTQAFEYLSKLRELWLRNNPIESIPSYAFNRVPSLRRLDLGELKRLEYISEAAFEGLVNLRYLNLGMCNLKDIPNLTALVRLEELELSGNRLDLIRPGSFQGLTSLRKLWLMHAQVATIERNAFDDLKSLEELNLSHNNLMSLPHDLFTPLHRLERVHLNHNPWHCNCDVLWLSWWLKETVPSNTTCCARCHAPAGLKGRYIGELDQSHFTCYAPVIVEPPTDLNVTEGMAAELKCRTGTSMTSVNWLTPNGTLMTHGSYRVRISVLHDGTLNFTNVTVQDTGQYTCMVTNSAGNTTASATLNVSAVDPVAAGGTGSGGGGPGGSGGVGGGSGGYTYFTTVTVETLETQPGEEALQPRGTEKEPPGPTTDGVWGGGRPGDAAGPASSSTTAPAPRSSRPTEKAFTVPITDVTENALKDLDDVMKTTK

[4] = target: T3, recombinant FAM19A5 (family with sequence similarity 19 member A5) (UniProt Q7Z5A7 44-132); assay: ELISA; competition: FAM19A5 captured by LRRC4B(36–576)-hFc in the presence of inhibitor, detected by HRP-conjugated C-A5-Ab; details: both partners purified
T3 construct: FAM19A5 (TAFA5), secretory protein; also called TAFA5; WT FAM19A5; source: recombinant
T3 sequence (Q7Z5A7 44-132): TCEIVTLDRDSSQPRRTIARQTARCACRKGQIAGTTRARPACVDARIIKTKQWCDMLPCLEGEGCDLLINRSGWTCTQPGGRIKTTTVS

- EC50 (His-TEV LRRC4B [1]): 0.595 nM
Molecule: MT FAM19A5 (R58A, R59A) (from UniProt Q7Z5A7 44-132) (natural protein)

- EC50 (His-TEV LRRC4B [1]): 0.41 nM
- IC50 (His-TEV LRRC4B [2]): 281 nM
Molecule: recombinant FAM19A5 (family with sequence similarity 19 member A5) (from UniProt Q7Z5A7 44-132) (natural protein)

- response (His-TEV LRRC4B [3]): 0.52 OD (450 nm)
B1: recombinant FAM19A5 (family with sequence similarity 19 member A5), Q7Z5A7 R58A; R59A; R125A; K127A (protein)
chain: TCEIVTLDRDSSQPAATIARQTARCACRKGQIAGTTRARPACVDARIIKTKQWCDMLPCLEGEGCDLLINRSGWTCTQPGGAIATTTVS

- IC50 [4]: 8.1 nM
B2: LRRC4B(453–576)-hFc (Fc fusion, UniProt Q9NT99 453-576, looked up)
chain: VSAVDPVAAGGTGSGGGGPGGSGGVGGGSGGYTYFTTVTVETLETQPGEEALQPRGTEKEPPGPTTDGVWGGGRPGDAAGPASSSTTAPAPRSSRPTEKAFTVPITDVTENALKDLDDVMKTTK
notes: also called WT FB-containing protein; FB protein; source: recombinant
